Data: the nanobody polyreactivity screen of Harvey et al. (2022)

Test: yeast display, Sf9 membrane polyspecificity reagent, FACS + sequencing; frameworks hold sequencing errors
In short: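 Sorting gates, low and high (top ~1%), were placed on anti-HA fluorescence to track expression and on streptavidin fluorescence to track reagent binding. A clone's polyreactivity label is taken from the gate it came out of. The reagent was 10% biotinylated, detergent-solubilized Sf9 membrane, applied for 1 hour at 4 °C to galactose-induced yeast display cells.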

QVQLVESGGGLVQAGGSLRLSCAASGSTFTNYALGWYRQAPGKEREFVAAITFRGGRTYYADSVKGRFTISRDNAKNTVYLQMNSLKPEDTAVYYCNKRTSPKRFDYWGQGTQVTVSS
polyreactivity (PSR sort gate): high polyreactivity

QVHLVESGGGLVQAGGSLRLSCAATGSTFHYYAMGWYRQAPGKEMELVAAISSSGVSTYYADSVKGRFTISRDNAKNTVYLQMNSLKPEDTAVYYCNSASVFHYRWYYYWGHGTQVTVSS
polyreactivity (PSR sort gate): high polyreactivity

QVQLVESGGGLVHAGGSLRLSCATSGRTFKYNAMGWYRQAPGKEREFVAAISSRGGSTTYYADSVTGRFTISRDNAKNTVYLQMKSLKPEDTAVYYCADRTPPPASRSRVYYWGQCTQVTVSS
polyreactivity (PSR sort gate): high polyreactivity

QVQLVESGGGLVQAGGSLRLSCAASGSISYYNAMGWYRQAPGKERELVATITDSGGSTYYADSVKGRFTISRDNAKNTVYLQMNSLKPEDTAVYYCNADYWAVNYDYWGQGSQVTVSS
polyreactivity (PSR sort gate): low polyreactivity

QVQLVESGGGLVQAGGSLRLSCAASGRIFTKYPMGRYRQATGKERELVAAITSGGRTYYADSVKGRFTISRDNAKNTVYLQMNSLKPEDTAVYFCAARYVQVVRKFGFRGQGTQVTVSS
polyreactivity (PSR sort gate): high polyreactivity

QVQLVESGGGLVQAGGSLRLICADSRRTFVSYTMGWYRQAPAKERELVAAISSGGSTTYADSVKGRFTISRDNAKNTVYLQMNSLKPEDTAVYYGNARYGWSYWSKYDYWGQGTQVNVSS
polyreactivity (PSR sort gate): high polyreactivity

QVQLVESGGGLVQAGGSLRLSCAASGITFEHYAMGWYREAPGKERELVAAINRSGDNTYYADSVKGRFTISRDNAKNTVYLQMNSLKPEDTAVNYCNTVELYWRGYDYWGQGTQVTVSS
polyreactivity (PSR sort gate): high polyreactivity

QVQLVESGGGLVQAGGSLRLSCAASGRTFKLYAMGWYRQAPGKESELVAAISRSGGSTYYADSVKGRFTISRDNAKNTVYLQMKSLKPEDTAVYYCNRRQGYHGDYDYWGQGTQVTVSS
polyreactivity (PSR sort gate): high polyreactivity

QVQLVESGGGLVQAGGSLRLSCAACGRTFYQNAMGWYRQAPGKERELVAAISRSGGSTYYADSVKGRFTISLYNAKNTVYLQMNSLKPEDTAVYFCAADPRSYGGGYDYWGQGTQVTVSS
polyreactivity (PSR sort gate): high polyreactivity

QVQLVESGGGLVQAGGSLRLSCAASGFTFWQYTMGWYRQAPGKERELVAAITSSGGSTYYADSVKGRFTISRDNAKNTVYLQMNSLKPEDTAVYYCAADGWGYSFQWQDHDYWGQGTQVTVSS
polyreactivity (PSR sort gate): low polyreactivity

QVQLVESGGGIVQAGGSLRLSCAASGITFPNYAMGWYRQAPGKERELVAAISSSGGSTYYADSVKGRFTISRDNPKNTVYLQMNSLKPEDTAVYYCATAINVYPRLDYGYWGQGTQVTVSS
polyreactivity (PSR sort gate): low polyreactivity

QVQLVESGGGLVQAGGSLRLSCAASGFTFIRNAMGWYRPAPGKERELVAAISTSGGTTYYADSVKGRFTISRDNAKNTVYLQMNSLKPEDTAVYYCNKGIGRSDPDYRYYYWGQGTQVTVSS
polyreactivity (PSR sort gate): high polyreactivity

QVQLVESGGGLVQAGGSLRLSCAASGFTFKYYAMGWYREAPGKERELVAAISLTGGSTYYADSVKGRFTISRDNAKNTVYFQMHSLIPEDTAVNYCNAVQGRQRGWEGPYGYWGQGTQVTVST
polyreactivity (PSR sort gate): high polyreactivity

QVQLVESGGGLVQAGGSLRLSCAASGFIFYYYAMGWYRQAPRKERELVAAISRSGGSTYYADSVKGRFTISRDNAKNTVYLQMNSLKPEDTAVYYCNTVPGTLYFRYDYWGQGTQVTVSS
polyreactivity (PSR sort gate): high polyreactivity

QVQLVESGVGLVQAGGSLRLSCAASGSILFYYAMGWYRQAPGKERELVAAITYSGARSYYADSVKGRFTISRDNAKNTVYLQMNSLKPEDTAVYYWAADQVYGIGYEYWGQGTQVTVSS
polyreactivity (PSR sort gate): low polyreactivity

QVHLVESGGGLVQAGGSLRLSCAASGRIFATNAMGWYRPAPGKERELVATITRSAGRTYYADSVKGRFTISRDNAKNTVYLQMNSLKPEDTAVYYCAASYWDTEPGYREYDYWGQGTQVTVSS
polyreactivity (PSR sort gate): low polyreactivity

LVQAGGSLRLSCAASVNTSGKNAMGWYRQAPGKERELVAAISSAGSTNYADSVKGRFTISRDNAKNTVYLQMNSLKPEDTAVYYCNAVRRLATVKTYRFNYWGQGTQVTVSS
polyreactivity (PSR sort gate): low polyreactivity

QVQLVESGGGLVQAGGSLRLSCAASGLTFGLNAMGWYRQAPGKEREVVAAITWSGGSTYYADSVKGRFTISRDNAKNTVYLQMNSLKPEDTAVYYCATDNWSVNGGYNYWGQGTHVTVSS
polyreactivity (PSR sort gate): low polyreactivity

QVQLVESGGGLVQAGGSLRLTCAASGGIFVFYAMGWYRQAPGKERELVAAIRYGGSSTYYADSVKGRFTISRDNAKNTVYLQMNSLKPEDTAVYYCAAEPYSWDTWVDYDYWGQGTQVTVSS
polyreactivity (PSR sort gate): low polyreactivity

QVQLVESGGGLVQAGGSLRLSCAASGIIFIGYAMGWYRQAAGKERELVAAITRSGVSTYYADSVKGRFTISRDNAKNTVYLQMNSLKPEDTAVYYCAARYFGEKYSQGFDYWGQGTQVTVSS
polyreactivity (PSR sort gate): low polyreactivity

QVHLEESGGGLVQAGGSLRLSCAASGRTFRHNAMGWYRQAPGKERELVAAISSSGTNTHYADSVKGRFTISRDNAKNTVYLQMNSLKPEDTAVYYCAADRWGARRKQYHENGYWGQGTQVTVSS
polyreactivity (PSR sort gate): high polyreactivity

QVQLVESAGGLVQAGGSLPLSSAASGRIFVWYAMRWYRQAPGKDRELVAAISISGSSTYYADSVKGRFTISRDNAKNTVYLQMNSLNPEDTAVYYCAARFYSSAYWYDYWGQGTQVTVSS
polyreactivity (PSR sort gate): high polyreactivity

QVQLVESGGGLVQAGGSIRLSCAASGRTFVPYVMGWYIQAPGKERELVATINWSGGSTYYADSVKGRFSISRDNAKNTVYLQMNSLKPEDTADYYCDARYYSDWFYYLFRYDYWGQGTQVTVSS
polyreactivity (PSR sort gate): low polyreactivity

QVQLVESGGGLVQAGGSLRLSCAASGFIIRTYAMGWYRQAPGKERELVAAITGRGGTTYYADSVKGRFTISRDNAKNTVDLQMNSLKPEDTAVYYCAARSRDYNYNPYDYWGQGTQVTVSS
polyreactivity (PSR sort gate): high polyreactivity

QVQLVESGGVLVQAGGSLRLSCAASGRIFSSYAMGWNRHAPGKERELVATSRRADSTYYADSVKGRFTISRDNAKNTVYLQMNSLKPEDTAVYYCAADTRLSRLIHRYDYWGQGTQVTVSS
polyreactivity (PSR sort gate): low polyreactivity

QVQLHESGGGLVQAGGSMRLSCEASGTISYAGTMGWYRQAPGKEREFVAGIGLGSNTNYADSVKGRYTIIRDNEKKSVYLQMNSLKPEDTSLYYFAVGVYDPLGRPYWCQGTQVTVSS
polyreactivity (PSR sort gate): low polyreactivity

QVQLVESGGGLVQAGGSLRLSCAASGFIFPYYDMGWYRQAPGTERELVAAISWSGDSTYYADSVKGRFTISRDNAKNTVYLQMNSLKPEDTAVYYCNVRARYQRYYYWGQGTQVTVSS
polyreactivity (PSR sort gate): high polyreactivity

QVQLLETGGGLVQAGGSLRLSCAPSGFTIYRYAMGWYKQAPGKERELVAAISSGTSTYYADTVKGRFTISRDNAKKTVYLQINSLKPEVTEVYYCAVAGVSLYGTLYDYWGLGTQVTVSS
polyreactivity (PSR sort gate): high polyreactivity

QVQLVESGGGLVQAGGSLRLSCAASGIIFAYYAMGWYRQAPGKERELVAAISWSGTSTYYADSVKGRFTISRDTATNTVYLQMNSLKPEDTAVYYCNAYGLYSDMDYWGQGTQVTVSS
polyreactivity (PSR sort gate): high polyreactivity

QVQLVESGGGLVQAGGSLRLSCAASGTIFVLYAMGWYRQAPGKERELVAAITTGGGTNYADSVKGRFTISRDNEKNTVYLQMNRLKPEDTAVYYCAADTGWYDDWTHDYWGQGTQVTVSS
polyreactivity (PSR sort gate): low polyreactivity

QVQLVESGGGLVQAGGSLRLSCAASGRTFAVYAMGWYRQAPGKERELVAAISGRGGNTYYADSVKGRFTISRDNAKNTVYFQMNSLKPEDTAVYYCAAKAYQSEYGYWGQGTQVTVSS
polyreactivity (PSR sort gate): high polyreactivity

QVQLVESGGGLVQAGGSLRLSCAASGSTIRYYAMGWYRQAPGKERQLVAYITTSGGTYYADSVKGRFTISRDNAKNTVYLQMHSLKPEDTAVYYCAARRQDYTYYRIYHFDYWGQGTQVTVSS
polyreactivity (PSR sort gate): high polyreactivity
